Patent publication US20130156764A1, “NEUTRALIZATION OF FLT3 LIGAND AS A LEUKEMIA THERAPY” (The Johns Hopkins University, priority 2010, published 2013)
Residue numbers refer to the chain shown, from its start.

Tests used:
[1] = tested on: FLT3 autophosphorylation in Molm14 cells (FLT3/ITD); experiment: Inhibition of FLT3 autophosphorylation in Molm14 cells in presence of FL (immunoblot); assay type: cell-based; settings: for effect of FL on dose response curve for inhibition of FLT3 autophosphorylation: exogenous FL, in medium and plasma; for effect of addition of FL on inhibition at the highest doses used: medium and plasma
Experimental: (§1) Leukemia cells were washed in PBS, then lysed by re-suspending them in lysis buffer (20 mM Tris pH 7.4, 100 mM NaCl, 1% Igepal (Sigma, St. Louis, Mo.), 1 mM EDTA, 2 mM NaV04, plus Complete protease inhibitor (Roche)) for 30 minutes while rocking. The extract was clarified by centrifugation at 14,000 rpm and the supernatant was assayed for protein (Bio-Rad, Richmond, Calif.). A 50 μg aliquot was removed as whole-cell lysate for analysis of STAT5, and the remainder was used for immunoprecipitation with anti-FLT3 antibody. Anti-FLT3 antibody (SI8; Santa Cruz Biotechnology, Santa Cruz, Calif.) was added to the extract for overnight incubation, then protein A sepharose (Upstate Biotechnology, Lake Placid, N.Y.) was added for 2 additional hours. Separate SDS-PAGE (sodium dodecylsulfate polyacrylamide electrophoresis) gels for whole-cell lysate and immunoprecipitates were run in parallel, After transfer to Immobilon membranes (Millipore, Bedford, Mass.), immunoblotting was performed with antiphosphotyrosine antibody (4G10; Upstate Biotechnology, Lake Placid, N.Y.) to detect phosphorylated FLT3, and then stripped and re-probed with anti-FLT3 antibody to measure total FLT3. Proteins were visualized using chemiluminescence (ECL; GE Healthcare, Piscataway, N.J.), exposed on Kodak BioMax XAR Film, developed, and scanned using a BioRad GS800 densitometer.

FLT3 [2] = experiment: Plasma inhibitory activity (PIA) assay for FLT3 with patient plasma on TF/ITD cells; assay type: cell-based, human; settings: for mean PIA value: AML15 trial
Experimental: as §1
Frozen plasma samples were thawed and clarified by centrifugation at 14,000 rpm for 2 minutes. All assays described herein were performed within 12 months of collection. For each time point, 2×10^6 TF/ITD were incubated with 1 ml plasma at 37° C. for 1 hour. The cells were washed twice with ice-cold PBS then lysed. After immunoblotting for phosphorylated FLT3 as described above, densitometric analysis was performed on the bands and the PIA for a given plasma sample was calculated by expressing the density of its corresponding band as a percentage of the density of the baseline band (which was arbitrarily set at 100%).

FLT3 [3] = settings: previous monotherapy trials; cited from earlier work
[4] = target: T1, FLT3/ITD mutant (addition of 6 amino acids, RTDFRE, after amino acid No. 596 of full-length FLT3) (human) (UniProt P36888); experiment: cell-based or functional assay
T1 sequence: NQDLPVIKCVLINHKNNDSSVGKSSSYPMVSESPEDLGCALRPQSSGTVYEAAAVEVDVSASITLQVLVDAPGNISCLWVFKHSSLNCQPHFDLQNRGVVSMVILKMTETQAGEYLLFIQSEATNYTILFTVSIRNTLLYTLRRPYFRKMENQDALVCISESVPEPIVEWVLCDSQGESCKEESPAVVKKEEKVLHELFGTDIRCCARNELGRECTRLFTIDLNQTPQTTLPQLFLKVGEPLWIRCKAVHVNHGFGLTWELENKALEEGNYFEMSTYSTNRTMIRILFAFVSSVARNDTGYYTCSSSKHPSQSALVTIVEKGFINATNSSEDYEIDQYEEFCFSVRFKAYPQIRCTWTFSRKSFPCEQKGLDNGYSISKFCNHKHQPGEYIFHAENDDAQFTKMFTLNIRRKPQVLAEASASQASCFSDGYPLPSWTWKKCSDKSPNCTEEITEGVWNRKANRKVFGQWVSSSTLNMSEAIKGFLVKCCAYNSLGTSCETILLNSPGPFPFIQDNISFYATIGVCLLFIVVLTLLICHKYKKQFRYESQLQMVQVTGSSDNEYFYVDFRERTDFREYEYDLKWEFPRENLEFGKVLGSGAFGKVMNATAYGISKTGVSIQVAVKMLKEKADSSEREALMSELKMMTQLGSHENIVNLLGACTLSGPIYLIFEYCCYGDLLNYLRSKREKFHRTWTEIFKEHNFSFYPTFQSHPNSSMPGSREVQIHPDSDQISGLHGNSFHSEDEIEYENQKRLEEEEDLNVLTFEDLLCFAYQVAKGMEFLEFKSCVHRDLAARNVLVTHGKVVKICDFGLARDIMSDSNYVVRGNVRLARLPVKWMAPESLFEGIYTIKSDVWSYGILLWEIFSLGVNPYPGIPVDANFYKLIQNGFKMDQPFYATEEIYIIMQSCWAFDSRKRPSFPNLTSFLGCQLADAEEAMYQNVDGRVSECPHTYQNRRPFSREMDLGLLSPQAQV

[5] = target: T2, FLT3/TKD mutant (D835, Aspartic acid to Tyrosine change, in full-length FLT3) (human) (UniProt P36888); experiment: cell-based or functional assay
T2 sequence: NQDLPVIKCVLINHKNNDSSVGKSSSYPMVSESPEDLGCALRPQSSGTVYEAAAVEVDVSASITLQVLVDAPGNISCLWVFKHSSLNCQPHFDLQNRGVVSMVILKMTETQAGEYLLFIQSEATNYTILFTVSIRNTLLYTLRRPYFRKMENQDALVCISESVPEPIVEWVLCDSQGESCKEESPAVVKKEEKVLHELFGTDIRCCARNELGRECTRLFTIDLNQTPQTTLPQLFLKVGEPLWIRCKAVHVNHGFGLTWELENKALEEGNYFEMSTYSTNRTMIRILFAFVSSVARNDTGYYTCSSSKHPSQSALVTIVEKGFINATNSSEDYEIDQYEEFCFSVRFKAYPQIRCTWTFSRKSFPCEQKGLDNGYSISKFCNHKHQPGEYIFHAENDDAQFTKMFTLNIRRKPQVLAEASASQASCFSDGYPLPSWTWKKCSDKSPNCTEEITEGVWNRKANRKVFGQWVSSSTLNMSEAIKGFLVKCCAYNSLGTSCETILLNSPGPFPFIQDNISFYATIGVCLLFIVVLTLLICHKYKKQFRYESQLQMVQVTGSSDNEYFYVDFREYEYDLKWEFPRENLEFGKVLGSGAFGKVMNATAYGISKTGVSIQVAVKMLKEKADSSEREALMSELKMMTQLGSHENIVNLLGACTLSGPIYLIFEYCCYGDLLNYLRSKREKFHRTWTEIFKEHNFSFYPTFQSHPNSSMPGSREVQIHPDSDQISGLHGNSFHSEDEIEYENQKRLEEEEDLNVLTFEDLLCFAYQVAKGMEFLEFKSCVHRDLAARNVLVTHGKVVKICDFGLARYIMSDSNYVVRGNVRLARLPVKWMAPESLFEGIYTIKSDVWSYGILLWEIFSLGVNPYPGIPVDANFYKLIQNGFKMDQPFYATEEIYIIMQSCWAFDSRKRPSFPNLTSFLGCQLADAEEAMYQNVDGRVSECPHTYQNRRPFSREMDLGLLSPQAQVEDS

[6] = target: T3, wild-type FLT3 (full-length, expressed in FL-/- MEF cells) (human) (UniProt P36888); experiment: cell-based or functional assay
T3 sequence: T2 sequence with Y809D

CNC(=O)c1cc(Oc2ccc(NC(=O)Nc3ccc(Cl)c(C(F)(F)F)c3)cc2)ccn1 [sorafenib, Sorafenib]
effect of FL on dose response curve for inhibition of FLT3 autophosphorylation [1]: upward shift in the dose response curves | effect of addition of FL on inhibition at the highest doses used [1]: loss of complete inhibition

C[C@]12O[C@H](C[C@]1(O)CO)n1c3ccccc3c3c4c(c5c6ccccc6n2c5c31)CNC4=O [lestaurtinib, Lestaurtinib]
samples below 15% of baseline FLT3 activity (FLT3 [2]; AML15 trial (newly diagnosed AML), Day 15 trough): all 18 | mean PIA value (FLT3 [2]; course 1, 18 samples): 3 % of baseline | mean PIA value (FLT3 [2]; courses 2 through 4, 18 samples): 6.8% | samples achieving target level of inhibition (FLT3 below 15% of baseline) (FLT3 [2]; Cephalon 204 trial (relapsed AML), Day 15 trough, 78 samples): 62% | FLT3 autophosphorylation remaining with FL ([1]; 10 μM in plasma, 3 ng/mL FL): significant residual FLT3 autophosphorylation | effect of FL on dose response curve for inhibition of FLT3 autophosphorylation [1]: upward shift in the dose response curve | trough levels in vivo sufficient to induce FLT3 inhibition to 15% of baseline (FLT3 [3]): 5 µM

O=C(c1ccc(/C=C/c2n[nH]c3ccccc23)cc1)N1CCNCC1 [KW-2449]
effect of FL on dose response curve for inhibition of FLT3 autophosphorylation [1]: upward shift in the dose response curves | effect of addition of FL on inhibition at the highest doses used [1]: loss of complete inhibition

B1: Recombinant human FL (FLT3 ligand), PeproTech (ligand)
chain: TQDCSFQHSPISSDFAVKIRELSDYLLQDYPVTVASNLQDEELCGGLWRLVLAQRWMERLKTVAGSKMQGLLERVNTEIHFVTKCAFQPPPSCLRFVQTNISRLLQETSEQLVALKPWITRQNFSRCLELQCQPDSSTLPPPWSPRPLEATAPTA
AKT phosphorylation in BaF3/ITD cells after FL stimulation [4]: 1.3 fold | FLT3 phosphorylation (anti-FLT3 IP, 4G10 immunoblot, densitometry) in FL-/- MEF-ITD cells, FL 100 ng/mL 15 min [4]: > 4 fold | FLT3 phosphorylation in TF1/ITD cells, exogenous FL 15 min [4]: > 2 fold | STAT5 phosphorylation in TF1/ITD cells after FL stimulation [4]: 1.8 fold | apoptotic population (Annexin V/7AAD, FACS) of TF1/ITD cells, 48 h serum-free, with FL [4]: 49.5% | apoptotic population (Annexin V/7AAD, FACS) of TF1/ITD cells, 48 h serum-free, without FL [4]: 61.3% | AKT phosphorylation in BaF3/TKD cells after FL stimulation [5]: 2.2 fold | FLT3 phosphorylation (anti-FLT3 IP, 4G10 immunoblot, densitometry) in FL-/- MEF-TKD cells, FL 100 ng/mL 15 min [5]: > 4 fold | FLT3 phosphorylation in TF1/TKD cells, exogenous FL 15 min [5]: > 2 fold | STAT5 phosphorylation in TF1/TKD cells after FL stimulation [5]: 1.8 fold | apoptotic population (Annexin V/7AAD, FACS) of TF1/TKD cells, 48 h serum-free, with FL [5]: 31.6% | apoptotic population (Annexin V/7AAD, FACS) of TF1/TKD cells, 48 h serum-free, without FL [5]: 40.2% | FLT3 phosphorylation (anti-FLT3 IP, 4G10 immunoblot, densitometry) in FL-/- MEF-FLT3 cells, FL 100 ng/mL 15 min [6]: > 4 fold

B2: secreted form of FL expressed from a lentiviral vector (coding sequence from pUMVC3-hFLex plasmid) (ligand)
chain: TQDCSFQHSPISSDFAVKIRELSDYLLQDYPVTVASNLQDEELCGGLWRLVLAQRWMERLKTVAGSKMQGLLERVNTEIHFVTKCAFQPPPSCLRFVQTNISRLLQETSEQLVALKPWITRQNFSRCLELQCQPDSSTLPPPWSPRPLEATAPTAP
FLT3 phosphorylation in FL-/- MEF-ITD cells stably expressing FL, no exogenous FL [4]: > 3 fold | FLT3 phosphorylation in FL-/- MEF-TKD cells stably expressing FL, no exogenous FL [5]: > 3 fold | FLT3 phosphorylation in FL-/- MEF-FLT3 cells stably expressing FL, no exogenous FL [6]: > 3 fold
